Publication PMC8294330

Tests used:
[1] = biological target: PNPase WT;Hfq (Escherichia coli;Escherichia coli) (UniProt P05055+P0A6X3); assay: cryo-EM; conditions: EMSA: 0.4 uM RNA, PNPase trimer 1:1 and 3:1 over RNA, 20 mM Tris pH 7.5, 100 mM NaCl, 1 mM MgCl2, 1 mM DTT, 30 C 20 min; native PAA gel with 10% glycerol …
[2] = biological target: PNPase S1x4;Hfq R681A;Q682A;R684A;R686A (Escherichia coli;Escherichia coli) (UniProt P05055+P0A6X3); assay: EMSA; conditions: EMSA: 0.4 uM RNA, PNPase trimer 1:1 and 3:1 over RNA, 20 mM Tris pH 7.5, 100 mM NaCl, 1 mM MgCl2, 1 mM DTT, 30 C 20 min; native PAA gel with 10% glycerol …

GCGAUCAGGAAGACCCUCGCGGAGAACCUGAAAGCACGACAUUGCUCACAUUGCUUCCAGUAUUACUUAGCCAGCCGGGUGCUGGCUUUUUUUUU [RyhB]
binding [1]: binds
binding [2]: no binding
